Ends that are not written are not given here.
What was measured:
[1] = target: T1, p65 (Homo sapiens, UniProt Q04206); assay: Co-IP of p65 by SFB-tagged RL peptide in 293T cells; assay type: binding; settings: 48 hours after transfection
T1 construct: endogenous in cells; host or cells: 293T
Description: FIGS. 10A-G. (A) Schematic diagram depicting a set of RB-N recombinant protein constructs. Western blot analysis of p65 proteins in PC-3 cells whole cell lysate pulled down by GST or GST-RB-N recombinant proteins. Stars indicate expected molecular weight. (B) Western blot analysis of in vitro transcribed and translated p65 proteins pulled down by GST or GST-RB recombinant proteins. Stars indicate expected molecular weight. (C) Western blot analysis of WCL and co-IP samples in 293T cells 48 h after transfected with indicated constructs. (D) Schematic diagram depicting an evolutionally conserved R-linker region in the N-terminal of RB. FIG. 10D discloses SEQ ID NOS 265 and 271-274, respectively, in order of appearance. (E) Western blot analysis of WCL and co-IP samples in 293T cells 48 hours after transfected with indicated constructs. (F) PC-3 cells were transfected with indicated plasmids. Western blot analysis of HA-RB proteins in PC-3 whole cell lysate pulled down by GST or GST-p65 recombinant proteins. Stars indicate expected molecular weight. (G) Schematic diagram depicting fully positively charged RB-N allows otherwise negatively charged by S249/T252 phosphorylation to bind to negatively charged 166FSLMV170 motif (SEQ ID NO: 286) in EID1. FIG. 10G discloses SEQ ID NOS 265-266 and 275, respectively, in order of appearance. […]

[2] = tested on: NF-κB site of the PD-L1 promoter; assay: EMSA with biotin-labeled PD-L1-prom oligonucleotide and PC-3 nuclear extracts; assay type: cell-based, human; settings: PC-3 cells expressing peptide
From the text: FIGS. 11A-H. (A) Heatmap showing differentially expressed genes (FDR<0.01) between palbociclib treatment versus DMSO and knockdown RB1 versus control. Gene expression values (FPKM) were Z-score normalized. FPKM, Fragments Per Kilobase of transcript per Million mapped reads. (B) UCSC Genome Browser screenshots of meta-analysis of published RB ChIP high throughput sequencing (ChIP-seq) data showing RB binding to CD274 (PD-L1) gene locus in K562 cells. PD-L1-prom oligonucleotide DNA containing NF-κB binding sequence was shown in the RB binding peak in the PD-L1 gene, the corresponding mutant PD-L1-prom oligonucleotide DNA was shown below. FIG. 11B discloses SEQ ID NOS 279-280, respectively, in order of appearance. (C) ChIP-qPCR analysis of RB binds at the PD-L1 promotor in PC-3 cells. All data were shown as mean values±SD (n=3). *** P<0.001. (D) ChIP-reChIP analysis examining the co-localization of p65 and RB in the PD-L1 promoters. All data were shown as mean values±SD (n=3). ** P<0.01. […]
FIGS. 21A-N. Effect of RB depletion, cell cycle, and RB-N S249/T252 phospho-mimicking peptide on PD-L1 expression in cell lines of various cancer types. […] 48 hours after infection, PD-L1 expression was determined by western blotting (A), RT-qPCR (B), and FACS (C). […] (D) Pd-l1 protein and mRNA levels were determined by western blotting in primary SKO and DKO mouse prostate tumor cell lines. […]

T1 sequence (Q04206 whole entry): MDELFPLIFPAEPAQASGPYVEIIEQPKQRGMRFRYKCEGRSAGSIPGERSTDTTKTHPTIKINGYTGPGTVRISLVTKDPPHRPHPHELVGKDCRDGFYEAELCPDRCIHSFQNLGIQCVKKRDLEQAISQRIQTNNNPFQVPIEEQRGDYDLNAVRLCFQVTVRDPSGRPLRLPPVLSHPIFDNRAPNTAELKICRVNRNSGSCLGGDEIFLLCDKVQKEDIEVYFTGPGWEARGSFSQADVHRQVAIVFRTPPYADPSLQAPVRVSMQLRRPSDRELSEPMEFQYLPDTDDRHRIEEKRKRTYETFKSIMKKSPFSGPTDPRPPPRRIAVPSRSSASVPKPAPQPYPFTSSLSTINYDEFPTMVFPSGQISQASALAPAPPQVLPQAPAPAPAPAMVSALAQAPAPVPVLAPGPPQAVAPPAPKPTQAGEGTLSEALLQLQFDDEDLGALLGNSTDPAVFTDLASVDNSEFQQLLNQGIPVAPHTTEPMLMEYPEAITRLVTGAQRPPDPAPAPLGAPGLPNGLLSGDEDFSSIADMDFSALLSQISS

RL-S249D/T252D: S249/T252 phospho-mimicking R-Linker (RL) peptide: fragment of RB-N containing 21 amino acids surrounding S249/T252, expressed SFB-tagged or by lentivirus (NGDPRDPRRGQNRSARIAKQL; also: expressed SFB-tagged (tag left off))
immunoprecipitation of p65 by SFB-tagged RL peptide [1]: effectively immunoprecipitated | p65 binding to the cognate DNA in the PD-L1 promoter [2]: inhibition
